Where two headings read alike, the source gives them in different places.
Legend:
[1] = system: LNCaP (prostate carcinoma) cells; settings: 48 hours, 3H-thymidine incorporation
Description: (§1) Adherent cells, LNCaP (prostate carcinoma), HT-29 (colon carcinoma) and PC-3 (prostate carcinoma), were cultured in DMEM media containing 10% heat inactivated fetal calf serum (FCS). On the day of the study the cells were detached from the plate with a trypsin solution. The collected cells were washed and resuspended at a concentration of 0.25×10^6 cells/ml in DMEM containing 10% FCS. 100 μl of cell suspension were added to 96 well plates and the plates were incubated for 3 hours to allow the cells to adhere. […] The plates were then incubated for 24 hours, pulsed with 10 μl of a 100 μCi/ml ^3H-thymidine and incubated for an additional 24 hours (total incubation time 48 hours). The plates were harvested using a 96 well Harvester (Packard Instruments) and counted on a Packard Top Count Counter. Four parameter logistic curves were fitted to the ^3H-thymidine incorporation as a function of drug molarity using Prism software to determine IC50 values.
(§2) Prostate carcinoma cells, LNCaP and PC-3 cells or colon carcinoma cells HT-29, were incubated with increasing concentration of the indicated compounds for 48 hours and cellular proliferation was measured using the ^3H-thymidine assay.

[2] = system: HT-29 (colon carcinoma) cells; settings: HT29, 48 hours, 3H-thymidine incorporation
Description: as §1, §2

[3] = system: PC-3 (prostate carcinoma) cells; settings: PC-3, 48 hours, 3H-thymidine incorporation
Description: as §1, §2

[4] = Comparative metabolism in mice, plasma AUC
Description: (§3) Plasma was obtained from three individual animals in each group at 5 minutes, 1, 2, 4, or 6 hr.

[5] = SD-MTD studies, 60 days, normal mice (Example 14); settings: mouse, in vivo
Description: In the single dose Maximum Tolerated Dose (SD-MTD) studies, groups of normal mice were administered intravenous bolus doses of the prodrug. The mice were observed daily for 60 days and body weights measured twice weekly. The SD-MTD was estimated to be equal to the highest dose that produced no death in mice after 60 days.

[6] = Metabolism and clearance of Suc-Met-Ala-Leu-Dox in mice (plasma, urine); format: in vivo, mouse; settings: mouse, in vivo, iv, 120 mg/kg
Description: Plasma samples were obtained at 1 or 4 hours, and urine was collected at 2 and 24 hours post administration. Levels of the prodrug and metabolites were measured by LC-MS with UV detection of doxorubicin.

[7] = mouse, in vivo
[8] = system: healthy young female normal mice; settings: Example 7
[9] = system: HeLa cell anion exchange fraction (F1), trouase; experiment: Relative cleavage by HeLa cell anion exchange fraction (F1) versus Suc-βAla-Leu-Ala-Leu standard; format: biochemical, human
Description: Thirty billion commercially produced HeLa Cells (human cervical carcinoma, Computer Cell Culture Ceizter, Seneffe, Belgium) were homogenized with a sonicator and with a Dounce homogenizer in 108 mL of aqueous lysis solution. The lysis solution contained 0.02% w/v Triton X-100, 0.04% w/v sodium azide, and a cocktail of protease inhibitors (2 tablets/50 mL Complete™, EDTA-free tablets, Roche Molecular Biochemicals). The cell homogenate was centrifuged 30 minutes at 4° C. at 5000×g and the pellet was homogenized in a second 108 mL of lysis solution using a Dounce homogenizer and centrifuged as before. The supernatants were combined and centrifuged for 90 min at 145,000×g at 4° C.
A portion of the ultracentrifugation supernatant was diluted 2-fold with a 20 mM triethanolamine-HCl pH 7.2 buffer containing 0.01% (w/v) Triton X-100 and 0.02% (w/v) sodium azide (equilibration buffer). Thirty mL of the resulting solution, corresponding to approximately 180 mg of protein, was loaded at 4° C. on a 2.6×9.4 cm Source™ 15Q (Amersham Pharmacia Biotech) low pressure anion exchange chromatography column (1 ml/minute). The column was then washed with 250 ml of the equilibration buffer at a flow rate of 1 mL/minute. Proteins were eluted in a NaCl linear concentration gradient (0–0.5 M in the equilibration buffer, total volume of the gradient was 1000 ml) at a flow rate of 3 ml/minute. Two-minute fractions were collected and used for enzyme activity determination using βAla-Leu-Ala-Leu-Dox as the substrate. Its transformation into Ala-Leu-Dox was quantified by reverse phase high performance liquid chromatography utilizing fluorescence detection of the anthracycline moiety. The fractions containing the highest activity levels were pooled (fractions #43–46; ˜0.13 M NaCl), supplemented with protease inhibitors (Complete™, EDTA-free tablets, Roche Molecular Biochemicals), and stored as aliquots at −80° C.
Test compounds were incubated for 2 hr at 37° C. at a concentration of 12.5 μg/mL with HeLa cell anion exchange fraction (F1), as prepared in Example 1(c). Following incubation, three volumes of acetonitrile were added to stop the reaction and remove protein from the mixture. The sample was centrifuged at 18,000 g for 5 minutes and 100 μL of supernatant was mixed with 300 μL of water prior to analysis by HPLC. For HPLC analysis 50 μL of sample was injected on a 4.6×50 mm 2μ TSK Super-ODS chromatography column at 40° C. and eluted with a 3 minute linear gradient from 26% to 68% acetonitrile in aqueous 20 mM ammonium acetate pH 4.5 buffer at 2 mL/min. Detection was by fluorescence using an excitation wavelength of 235 nm and an emission wavelength of 560 nm.
the amount of cleavage of each test compound was compared to the amount of a standard Suc-βAla-Leu-Ala-Leu-therapeutic agent conjugate cleaved by F1 under the same conditions. The therapeutic agent in the standard (Dox or Dnr) was the same as in the test compound. Table 3 provides the relative cleavage rates of several tripeptide prodrugs.

[10] = in vivo; settings: female, ICR, mouse, iv, 100 umol/kg
Description: as §3

[11] = Repeat-dose tolerability / repeat dose MTD in tumor bearing mice; format: in vivo, mouse; settings: mouse, in vivo, Table 12, re-analyzed
Description: In one study, one animal in each dose group (n=8) was terminated as a possible drug-related toxicity death late in the study, at Days 58 and 57 in the low and high dose-groups respectively. The safety of the compound was evidenced by little body weight loss in either the high or low dose groups (less than 5% of the initial weight) during the 60-day observation period, in surviving animals (FIG. 14). In the other study, both the high and low dose were well tolerated. Only one animal in the high dose group (n=10) had over 15% of body weight loss at the end of the study (Day 61).
In repeat-dose studies in tumor bearing mice, groups of ten mice were dosed with various amounts of prodrug for a total of five doses at either five day or 1 week intervals. […] Thus, the prodrugs permit a much greater amount of therapeutic agent to be delivered to the body as a whole and thus to the vicinity of the target cell.

[12] = single IV bolus approximately 100 μmol/Kg, ICR mice
[13] = intravenous, SD MTD (mg/kg), value in parentheses (doxorubicin equivalent dose), Table 11, doses as first stated
[14] = intravenous, SD MTD (mg/kg), value in parentheses: doxorubicin equivalent dose, Table 12, re-analyzed data and new data
[15] = intravenous, Table 12, re-analyzed data and new data, read-out: SD MTD
[16] = iv, Table 11, doses as first stated, intravenous bolus, 60 days, read-out: SD MTD

CC[C@H](C)[C@H](NC(=O)CCC(=O)O)C(=O)N[C@@H](C)C(=O)N[C@@H](CC(C)C)C(=O)N[C@H]1C[C@H](O[C@H]2C[C@](O)(C(=O)CO)Cc3c(O)c4c(c(O)c32)C(=O)c2c(OC)cccc2C4=O)O[C@@H](C)[C@H]1O [Suc-Ile-Ala-Leu-Dox] gave an IC50 [1] of 1.1 µM, an IC50 [2] of 47 µM and an IC50 [3] of 88 µM. The AUC ([4]; female, ICR, mouse, in vivo, iv, 100 umol/kg) was 452 µM·h, the “Dox, area under the plasma concentration time curve” value ([4]; single IV bolus approximately 100 μmol/Kg of prodrug, ICR mice) was 0.9 µM·h and the “AL-Dox or AG-DOX, area under the plasma concentration time curve” value [4, 12] was 1.0 µM·h. For the same compound, the “L-Dox or G-Dox, area under the plasma concentration time curve” value [4, 12] was 6.2 µM·h.

Compound COc1cccc2c1C(=O)c1c(O)c3c(c(O)c1C2=O)C[C@@](O)(C(=O)CO)C[C@@H]3O[C@H]1C[C@H](NC(=O)[C@H](CC(C)C)NC(=O)[C@H](Cc2ccc(O)cc2)NC(=O)[C@H](CC(C)C)NC(=O)CCC(=O)O)[C@H](O)[C@H](C)O1 [Suc-Leu-Tyr-Leu-Dox] has an IC50 [1] of 9.4 µM, an IC50 [2] of 42 µM and an IC50 [3] of 51 µM. It also gave an MTD at 60 day [5, 13] of over 70 mg/kg, an MTD at 60 day [5, 14] of over 70 mg/kg and an MTD at 60 day [5, 15] of over 128 mg/kg. The MTD at 60 day [5, 16] was over 128 mg/kg.

In the case of COc1cccc2c1C(=O)c1c(O)c3c(c(O)c1C2=O)C[C@@](O)(C(=O)CO)C[C@@H]3O[C@H]1C[C@H](NC(=O)[C@H](CC(C)C)NC(=O)[C@H](C)NC(=O)[C@H](CCSC)NC(=O)CCC(=O)O)[C@H](O)[C@H](C)O1 [Suc-Met-Ala-Leu-Dox], the “Plasma 4 hr, percent of administered dose” value [6] is reported as about 0.001%, the “Urine 2 hr, percent of administered dose” value [6] is reported as 6.6% and the MTD at 60 day [5, 13] is reported as 42 mg/kg. The MTD at 60 day [5, 14] was 42 mg/kg, the MTD at 60 day [5, 15] was 70 mg/kg and the MTD at 60 day [5, 16] was 70 mg/kg. The MTD at 28 day ([7]; intravenous) was about 40 mg/kg, the MTD at 28 day ([7]; iv) was about 71 mg/kg and the “dose of doxorubicin at single dose MTD, fold higher than with doxorubicin alone” value [8] was “about 1.5 fold”. The “acute signs of toxicity” value ([8]; single intravenous 24-120 mg/kg) was “no acute signs of toxicity”, the “Relative Cleavage %” value ([9]; 2 hr at 37° C., 12.5 μg/mL, HeLa F1, relative to Suc-βAla-Leu-Ala-Leu-(Dox or Dnr) standard) was 49% and the “Relative Rate of Cleavage” value ([9]; relative to Suc-βAla-Leu-Ala-Leu-Dox = 100 (Tables 11 and 12)) was 49.

COc1cccc2c1C(=O)c1c(O)c3c(c(O)c1C2=O)C[C@@](O)(C(=O)CO)C[C@@H]3O[C@H]1C[C@H](NC(=O)[C@H](CC(C)C)NC(=O)[C@H](C)NC(=O)[C@H](CC(C)C)NC(=O)CCNC(=O)CCC(=O)O)[C@H](O)[C@H](C)O1 [Suc-βAla-Leu-Ala-Leu-Dox, reference compound] gave an MTD ([5]; SD MTD (mg/kg), value in parentheses (doxorubicin equivalent dose), Table 11, doses as first stated) of 42 mg/kg, an MTD ([5]; SD MTD (mg/kg), value in parentheses: doxorubicin equivalent dose, Table 12, re-analyzed data and new data) of 28 mg/kg and an MTD ([5]; Table 12, re-analyzed data and new data, read-out: SD MTD) of 50 mg/kg. It also gave an MTD [5, 16] of 75 mg/kg, an AUC [10] of 806 µM·h and an MTD ([11]; Repeat Dose MTD (mg/kg), value in parentheses: doxorubicin equivalent dose, Q 5 D × 5 or Q 7 D × 5) of 32 mg/kg. The MTD ([11]; Q 5 D × 5 or Q 7 D × 5 as given per compound, read-out: Repeat Dose MTD) was 57 mg/kg.

Source: patent publication US7214663B2, “Tripeptide prodrug compounds” (Medarex, Inc., priority 2001, dated 2007)
